# Data: patent US20220024991A1 (GENOME PROTECTION, published 2022)
# Biological target: human TLR5 (293-hTLR5-LacZ reporter cells) (human, UniProt O60602 21-858)
# Assay: cell-based or functional assay
# human TLR5 (293-hTLR5-LacZ reporter cells), sequence (O60602 21-858): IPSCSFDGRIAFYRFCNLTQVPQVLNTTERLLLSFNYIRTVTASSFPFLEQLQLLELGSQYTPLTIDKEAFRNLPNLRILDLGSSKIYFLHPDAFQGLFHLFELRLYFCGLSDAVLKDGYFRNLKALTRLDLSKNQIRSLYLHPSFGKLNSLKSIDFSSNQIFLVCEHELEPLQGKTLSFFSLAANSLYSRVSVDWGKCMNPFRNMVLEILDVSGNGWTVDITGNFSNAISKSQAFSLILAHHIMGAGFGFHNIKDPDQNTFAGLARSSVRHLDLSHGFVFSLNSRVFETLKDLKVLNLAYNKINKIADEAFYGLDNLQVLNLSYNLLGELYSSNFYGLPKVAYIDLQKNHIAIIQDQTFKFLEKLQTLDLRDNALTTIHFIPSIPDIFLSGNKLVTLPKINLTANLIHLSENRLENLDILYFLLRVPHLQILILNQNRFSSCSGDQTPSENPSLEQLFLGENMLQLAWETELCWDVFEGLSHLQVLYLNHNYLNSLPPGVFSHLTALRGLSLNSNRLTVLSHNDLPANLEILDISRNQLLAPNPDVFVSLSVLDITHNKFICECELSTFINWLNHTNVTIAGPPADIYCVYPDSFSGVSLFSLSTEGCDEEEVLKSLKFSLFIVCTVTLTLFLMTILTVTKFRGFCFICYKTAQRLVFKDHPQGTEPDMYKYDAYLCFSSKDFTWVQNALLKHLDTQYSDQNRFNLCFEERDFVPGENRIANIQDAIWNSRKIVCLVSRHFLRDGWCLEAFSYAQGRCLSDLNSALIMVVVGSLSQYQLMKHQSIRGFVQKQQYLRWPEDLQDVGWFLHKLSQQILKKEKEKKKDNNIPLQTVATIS
binder,measurement,value
entolimod/CBLB502 (ligand) not shown,"EC50, ng/ml (NF-κB reporter enzyme activity)",0.032 ng/mL
same,"EC50, pM (NF-κB reporter enzyme activity)",0.92 pM
